# Assay results from US20260035458A1 (Astellas, published 2026).
# Residue numbers refer to the chain shown, from its start.
# T1: human CLDN9 (human, UniProt O95484 1-217)
# T1 construct: whole, on cells; Transiently expressed on HEK293 cells
# T1 sequence (looked up): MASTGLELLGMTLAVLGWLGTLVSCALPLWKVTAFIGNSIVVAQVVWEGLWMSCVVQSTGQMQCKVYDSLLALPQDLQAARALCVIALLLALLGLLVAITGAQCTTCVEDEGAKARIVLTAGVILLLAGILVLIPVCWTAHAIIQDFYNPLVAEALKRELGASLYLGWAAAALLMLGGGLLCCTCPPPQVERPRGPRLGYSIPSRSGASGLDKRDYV
# B1: XENP24647 (bispecific antibody)
# heavy: QVQLQQPGAELVRPGASVKLSCKASGYTFTSYWINWVKQRPGQGLEWIGNIYPSDSYTNYNQKFKDKATLTVDKSSSTAYMQLSSPTSEDSAVYYCTRSWRGNSFDYWGQGTTLTVSSASTKGPSVFPLAPSSKSTSGGTAALGCLVKDYFPEPVTVSWNSGALTSGVHTFPAVLQSSGLYSLSSVVTVPSSSLGTQTYICNVNHKPSDTKVDKKVEPKSCDKTHTCPPCPAPPVAGPSVFLFPPKPKDTLMISRTPEVTCVVVDVKHEDPEVKFNWYVDGVEVHNAKTKPREEEYNSTYRVVSVLTVLHQDWLNGKEYKCKVSNKALPAPIEKTISKAKGQPREPQVYTLPPSREEMTKNQVSLTCDVSGFYPSDIAVEWESDGQPENNYKTTPPVLDSDGSFFLYSKLTVDKSRWEQGDVFSCSVMHEALHNHYTQKSLSLSPGK
# chain: QVQLQQPGAELVRPGASVKLSCKASGYTFTSYWINWVKQRPGQGLEWIGNIYPSDSYTNYNQKFKDKATLTVDKSSSTAYMQLSSPTSEDSAVYYCTRSWRGNSFDYWGQGTTLTVSSASTKGPSVFPLAPSSKSTSGGTAALGCLVKDYFPEPVTVSWNSGALTSGVHTFPAVLQSSGLYSLSSVVTVPSSSLGTQTYICNVNHKPSNTKVDKKVEPKSCGGGGSGGGGSEVQLVESGGGLVQPGGSLRLSCAASGFTFSTYAMNWVRQAPGKGLEWVGRIRSKYNNYATYYADSVKGRFTISRDDSKNTLYLQMNSLRAEDTAVYYCVRHGNFGDSYVSWFAYWGQGTLVTVSSGKPGSGKPGSGKPGSGKPGSQAVVTQEPSLTVSPGGTVTLTCGSSTGAVTTSNYANWVQQKPGKSPRGLIGGTNKRAPGVPARFSGSLLGGKAALTISGAQPEDEADYYCALWYSNHWVFGGGTKLTVLGGGGSGGGGSKTHTCPPCPAPPVAGPSVFLFPPKPKDTLMISRTPEVTCVVVDVKHEDPEVKFNWYVDGVEVHNAKTKPREEQYNSTYRVVSVLTVLHQDWLNGKEYKCKVSNKALPAPIEKTISKAKGQPREPQVYTLPPSREQMTKNQVKLTCLVKGFYPSDIAVEWESNGQPENNYKTTPPVLDSDGSFFLYSKLTVDKSRWQQGNVFSCSVMHEALHNHYTQKSLSLSPGK
# light: DIVMTQSPSSLTVTAGEKVTMSCKSSQSLLNSGNQKNYLTWYQQKPGQPPKLLIYWASTRESGVPDRFTGSGSGTDFTLTISSVQAEDLAVYYCQNDYSYPFTFGSGTKLEIKRTVAAPSVFIFPPSDEQLKSGTASVVCLLNNFYPREAKVQWKVDNALQSGNSQESVTEQDSKDSTYSLSSTLTLSKADYEKHKVYACEVTHQGLSSPVTKSFNRGEC
# notes: also called anti-CLDN18.2× anti-CD3 bsAb; Fab2-scFv
# B2: XENP29476 (bispecific antibody)
# heavy: EVQLVQSGAEVKKPGESLRISCKASGYTFTSYWINWVRQMPGKGLEWMGNIYPSDSYTNYNQKFQGHVTISVDKSISTAYLQWSSLKASDTAMYYCTRSWRGNSFDYWGQGTLVTVSSASTKGPSVFPLAPSSKSTSGGTAALGCLVKDYFPEPVTVSWNSGALTSGVHTFPAVLQSSGLYSLSSVVTVPSSSLGTQTYICNVNHKPSDTKVDKKVEPKSCDKTHTCPPCPAPPVAGPSVFLFPPKPKDTLMISRTPEVTCVVVDVKHEDPEVKFNWYVDGVEVHNAKTKPREEEYNSTYRVVSVLTVLHQDWLNGKEYKCKVSNKALPAPIEKTISKAKGQPREPQVYTLPPSREEMTKNQVSLTCDVSGFYPSDIAVEWESDGQPENNYKTTPPVLDSDGSFFLYSKLTVDKSRWEQGDVFSCSVMHEALHNHYTQKSLSLSPGK
# chain: EVQLVQSGAEVKKPGESLRISCKASGYTFTSYWINWVRQMPGKGLEWMGNIYPSDSYTNYNQKFQGHVTISVDKSISTAYLQWSSLKASDTAMYYCTRSWRGNSFDYWGQGTLVTVSSASTKGPSVFPLAPSSKSTSGGTAALGCLVKDYFPEPVTVSWNSGALTSGVHTFPAVLQSSGLYSLSSVVTVPSSSLGTQTYICNVNHKPSNTKVDKKVEPKSCGGGGSGGGGSEVQLVESGGGLVQPGGSLRLSCAASGFTFSTYAMNWVRQAPGKGLEWVGRIRSKYNNYATYYADSVKGRFTISRDDSKNTLYLQMNSLRAEDTAVYYCVRHGNFGDSYVSWFAYWGQGTLVTVSSGKPGSGKPGSGKPGSGKPGSQAVVTQEPSLTVSPGGTVTLTCGSSTGAVTTSNYANWVQQKPGKSPRGLIGGTNKRAPGVPARFSGSLLGGKAALTISGAQPEDEADYYCALWYSNHWVFGGGTKLTVLGGGGSGGGGSKTHTCPPCPAPPVAGPSVFLFPPKPKDTLMISRTPEVTCVVVDVKHEDPEVKFNWYVDGVEVHNAKTKPREEQYNSTYRVVSVLTVLHQDWLNGKEYKCKVSNKALPAPIEKTISKAKGQPREPQVYTLPPSREQMTKNQVKLTCLVKGFYPSDIAVEWESNGQPENNYKTTPPVLDSDGSFFLYSKLTVDKSRWQQGNVFSCSVMHEALHNHYTQKSLSLSPGK
# light: not shown
# notes: as for B1
# B3: XENP24644 (antibody, V domains shown)
# VH: QVQLQQPGAELVRPGASVKLSCKASGYTFTSYWINWVKQRPGQGLEWIGNIYPSDSYTNYNQKFKDKATLTVDKSSSTAYMQLSSPTSEDSAVYYCTRSWRGNSFDYWGQGTTLTVSS
# VL: DIVMTQSPSSLTVTAGEKVTMSCKSSQSLLNSGNQKNYLTWYQQKPGQPPKLLIYWASTRESGVPDRFTGSGSGTDFTLTISSVQAEDLAVYYCQNDYSYPFTFGSGTKLEIK
# notes: also called H0L0 CLDN18.2; bivalent mAb
# B4: XENP29471 (antibody, V domains shown)
# VH: QVQLVQSGAEVKKPGASVKVSCKASGYTFTSYWINWVRQAPGQGLEWMGNIYPSDSYTNYNQKFQGRVTMTVDKSTSTAYMELSSLRSEDTAVYYCTRSWRGNSFDYWGQGTLVTVSS
# VL: B3 VL with S9D, T12A, T14S, A15L, K18R, V19A, M21I, S22N, V84L, L89V
# notes: also called H2L1 CLDN18.2; bivalent mAb
# B5: XENP29470 (antibody, V domains shown)
# VH: EVQLVQSGAEVKKPGESLRISCKASGYTFTSYWINWVRQMPGKGLEWMGNIYPSDSYTNYNQKFQGHVTISVDKSISTAYLQWSSLKASDTAMYYCTRSWRGNSFDYWGQGTLVTVSS
# VL: B3 VL with S9D, T12A, T14S, A15L, K18R, V19A, M21I, S22N, V84L, L89V
# notes: also called H1L1 CLDN18.2 (printed H1LI); bivalent mAb
# B6: XENP24645 (bispecific antibody)
# heavy: B1 heavy
# chain: not shown
# light: B1 light
# notes: expressed in HEK293E cells; also called anti-CLDN18.2× anti-CD3 bsAb; Fab-scFv
# B7: XENP29472 (bispecific antibody)
# heavy: B2 heavy
# chain: not shown
# light: not shown
# notes: also called anti-CLDN18.2× anti-CD3 bsAb; Fab-scFv
# Target: T2, human CLDN18.2 (human)
# T2 construct: also called claudin 18 splice variant 2
# Assay: flow cytometry on SNU-601 (2E4) cells (enriched for CLDN18.2), Alexa Fluor 647 anti-human IgG Fcγ secondary
# Source text: Control samples included bsAbs having murine CLDN18.2 ABDs, bivalent anti-CLDN18.2 mAbs, cells only, and secondary antibody only.
row,EC50 (read off the curve),Binder
1,~0.6 µg/mL,B1
2,~0.5 µg/mL,B2
3,~0.4 µg/mL,B3
4,~0.9 µg/mL,B4
5,~0.5 µg/mL,B5

# Target: T1, human CLDN9
# Assay: flow cytometry on HEK293 cells transiently transfected with human CLDN9, AF647 secondary antibody
row,binding result,Binder
1,no binding (tested: 30000 ng/ml),B1
2,no binding (tested: 30000 ng/ml),B6
3,no binding (tested: 30000 ng/ml),B2
4,no binding (tested: 30000 ng/ml),B7
5,no binding (tested: 30000 ng/ml),B3

# Target: T2, human CLDN18.2
# Assay: flow cytometry on HEK293 cells transiently transfected with human CLDN18.2 (column hCLDN18.2 EC50 (nM))
# Procedure: Therefore, the anti-CLDN18.2× anti-CD3 bsAbs were investigated for their binding to human CLDN18.2, cynomolgus CLDN18.2, and murine CLDN18.2. HEK293 cells were transiently transfected to express human, cynomolgus, or mouse CLDN18.2. 48 hours post transfection, cells were mixed with indicated concentrations of the bsAbs and incubated for 1 hour at 4° C. Cells were washed and then stained with a secondary Ab for 1 hour at 4° C. After two more washes, cells were analyzed on an Attune flow cytometer.
row,EC50,Binder
1,4 nM,B1
2,145 nM,B6
3,6 nM,B2
4,146 nM,B7
5,4 nM,B3
